Assay results from patent US20150344570A1 (published 2015).

B1: GpH7-A5/GpH7-B3 variant S267_06M/GpL16-k0 (antibody, human IgG1, kappa)
heavy 1: not shown
heavy 2: not shown
light: DIVMTQSPLSLPVTPGEPASISCQASESLVHSNRNTYLHWYLQKPGQSPQLLIYKVSNRFSGVPDRFSGSGSGTDFTLKISRVEAEDVGVYYCSQNTHVPPTFGQGTKVEIERTVAAPSVFIFPPSDEQLKSGTASVVCLLNNFYPREAKVQWKVDNALQSGNSQESVTEQDSKDSTYSLSSTLTLSKADYEKHKVYACEVTHQGLSSPVTKSFNRGEC
notes: Heterodimerized anti-glypican-3 IgG1; mutation in the GpH7-B3 chain only; also called He Ab
B2: GpH7-A5/GpH7-B3 variant N325_01G/GpL16-k0 (antibody, human IgG1, kappa)
heavy 1: not shown
heavy 2: not shown
light: B1 light
notes: Heterodimerized IgG1 antibody; alteration in the GpH7-B3 chain only; also called He Ab
B3: GpH7-A5/GpH7-B3 variant A327_10E/GpL16-k0 (antibody, human IgG1, kappa)
heavy 1: not shown
heavy 2: not shown
light: B1 light
notes: as for B2
B4: GpH7-A5/GpH7-B3 variant V266_04F/GpL16-k0 (antibody, human IgG1, kappa)
heavy 1: not shown
heavy 2: not shown
light: B1 light
notes: as for B1
B5: GpH7-A5/GpH7-B3 variant A327_15Y/GpL16-k0 (antibody, human IgG1, kappa)
heavy 1: not shown
heavy 2: not shown
light: B1 light
notes: as for B2
B6: GpH7-A5/GpH7-B3 variant S267_16H/GpL16-k0 (antibody, human IgG1, kappa)
heavy 1: not shown
heavy 2: not shown
light: B1 light
notes: as for B1
B7: GpH7-A5/GpH7-B3 variant S267_14T/GpL16-k0 (antibody, human IgG1, kappa)
heavy 1: not shown
heavy 2: not shown
light: B1 light
notes: as for B1
B8: GpH7-A5/GpH7-B3 variant V266_05P/GpL16-k0 (antibody, human IgG1, kappa)
heavy 1: not shown
heavy 2: not shown
light: B1 light
notes: as for B1
B9: GpH7-A5/GpH7-B3 variant S267_12R/GpL16-k0 (antibody, human IgG1, kappa)
heavy 1: not shown
heavy 2: not shown
light: B1 light
notes: as for B1
B10: GpH7-A5/GpH7-B3 variant A327_09D/GpL16-k0 (antibody, human IgG1, kappa)
heavy 1: not shown
heavy 2: not shown
light: B1 light
notes: as for B2
B11: GpH7-A5/GpH7-B3 variant S267_10E/GpL16-k0 (antibody, human IgG1, kappa)
heavy 1: not shown
heavy 2: not shown
light: B1 light
notes: as for B1
B12: GpH7-A5/GpH7-B3 variant A327_01G/GpL16-k0 (antibody, human IgG1, kappa)
heavy 1: not shown
heavy 2: not shown
light: B1 light
notes: as for B2
B13: GpH7-A5/GpH7-B3 variant S267_07I/GpL16-k0 (antibody, human IgG1, kappa)
heavy 1: not shown
heavy 2: not shown
light: B1 light
notes: as for B1
B14: GpH7-A5/GpH7-B3 variant V266_07I/GpL16-k0 (antibody, human IgG1, kappa)
heavy 1: not shown
heavy 2: not shown
light: B1 light
notes: as for B1
B15: GpH7-A5/GpH7-B3 variant A327_03V/GpL16-k0 (antibody, human IgG1, kappa)
heavy 1: not shown
heavy 2: not shown
light: B1 light
notes: as for B2
B16: GpH7-A5/GpH7-B3 variant A327_14T/GpL16-k0 (antibody, human IgG1, kappa)
heavy 1: not shown
heavy 2: not shown
light: B1 light
notes: as for B2
B17: GpH7-A5/GpH7-B3 variant S267_19Q/GpL16-k0 (antibody, human IgG1, kappa)
heavy 1: not shown
heavy 2: not shown
light: B1 light
notes: as for B1
B18: GpH7-A5/GpH7-B3 variant A327_16H/GpL16-k0 (antibody, human IgG1, kappa)
heavy 1: not shown
heavy 2: not shown
light: B1 light
notes: as for B2
B19: GpH7-A5/GpH7-B3 variant A327_08L/GpL16-k0 (antibody, human IgG1, kappa)
heavy 1: not shown
heavy 2: not shown
light: B1 light
notes: as for B2
B20: GpH7-A5/GpH7-B3 variant V266_11K/GpL16-k0 (antibody, human IgG1, kappa)
heavy 1: not shown
heavy 2: not shown
light: B1 light
notes: as for B1
B21: GpH7-A5/GpH7-B3 variant S267_11K/GpL16-k0 (antibody, human IgG1, kappa)
heavy 1: not shown
heavy 2: not shown
light: B1 light
notes: as for B1
B22: GpH7-A5/GpH7-B3 variant Y300_10E/GpL16-k0 (antibody, human IgG1, kappa)
heavy 1: not shown
heavy 2: not shown
light: B1 light
notes: as for B1
B23: GpH7-A5/GpH7-B3 variant V266_08L/GpL16-k0 (antibody, human IgG1, kappa)
heavy 1: not shown
heavy 2: not shown
light: B1 light
notes: as for B1
B24: GpH7-A5/GpH7-B3 variant A327_04F/GpL16-k0 (antibody, human IgG1, kappa)
heavy 1: not shown
heavy 2: not shown
light: B1 light
notes: as for B2
B25: GpH7-A5/GpH7-B3 variant S267_09D/GpL16-k0 (antibody, human IgG1, kappa)
heavy 1: not shown
heavy 2: not shown
light: B1 light
notes: as for B1
B26: GpH7-A5/GpH7-B3 variant A327_20W/GpL16-k0 (antibody, human IgG1, kappa)
heavy 1: not shown
heavy 2: not shown
light: B1 light
notes: as for B2
B27: GpH7-A5/GpH7-B3 variant A327_18N/GpL16-k0 (antibody, human IgG1, kappa)
heavy 1: not shown
heavy 2: not shown
light: B1 light
notes: as for B2
B28: GpH7-A5/GpH7-B3 variant A327_07I/GpL16-k0 (antibody, human IgG1, kappa)
heavy 1: not shown
heavy 2: not shown
light: B1 light
notes: as for B2
B29: GpH7-A5/GpH7-B3 variant V266_06M/GpL16-k0 (antibody, human IgG1, kappa)
heavy 1: not shown
heavy 2: not shown
light: B1 light
notes: as for B1

Legend:
FcγRIIa R [1] = biological target: T1, FcγRIIa R (human, UniProt P12318 34-217); experiment: SPR, relative to GpH7-A5/GpH7-B3/GpL16-k0
T1 construct: extracellular domain; also called FcgRIIa R type; 2aR; not shown: His tag at the C terminus
T1 sequence (looked up): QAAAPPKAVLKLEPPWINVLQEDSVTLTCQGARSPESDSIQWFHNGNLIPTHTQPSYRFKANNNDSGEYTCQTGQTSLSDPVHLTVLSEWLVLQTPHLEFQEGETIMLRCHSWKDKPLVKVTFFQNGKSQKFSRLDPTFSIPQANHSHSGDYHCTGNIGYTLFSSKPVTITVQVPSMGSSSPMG

FcγRIIb = biological target: T2, FcγRIIb (human, UniProt P31994 43-217); experiment: SPR, relative to GpH7-A5/GpH7-B3/GpL16-k0
T2 construct: extracellular domain; also called FcgRIIb; 2b; not shown: His tag at the C terminus
T2 sequence (looked up): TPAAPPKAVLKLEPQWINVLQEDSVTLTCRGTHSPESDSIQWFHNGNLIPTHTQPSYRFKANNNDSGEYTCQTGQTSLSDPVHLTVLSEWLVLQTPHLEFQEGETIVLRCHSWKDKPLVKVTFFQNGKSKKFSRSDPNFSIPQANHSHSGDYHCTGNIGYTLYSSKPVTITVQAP

FcγRIIa R [2] = biological target: T1, FcγRIIa R; experiment: SPR; He/Con_2aR divided by He/Con_2b (FcγRIIa R over FcγRIIb)
[3] = biological target: T3, FcγRIIb extracellular domain with C-terminal His tag (human, UniProt P31994 43-217); experiment: SPR (Biacore), FcγR as analyte over captured antibody; GpH7-A5/GpH7-B3/GpL16-k0 = 100
T3 construct: extracellular domain; also called FcgRIIb; 2b; not shown: His tag at the C terminus
T3 sequence (looked up): T2 sequence (looked up)
Protocol: (§1) The heterodimerized antibodies He Abs in which one of the H chains was introduced with an alteration were assayed for their binding activities to each activating FcγR and inhibitory FcγR according to the method described in Example 4. […] The activating FcγRs in FIGS. 26, 27, 28, and 29 are FcγRIa, FcγRIIa (R), FcγRIIa (H), and FcγRIIIa, respectively.
(§2) Analysis of interaction between objective antibody and the FcγR was carried out using Biacore T100 (GE Healthcare). HBS-EP+ (GE Healthcare) was used as the running buffer, and the measurement temperature was set to 25° C. Chips produced by immobilizing the antigen peptide by the amine coupling method to a Series S Sencor Chip CM5 (GE Healthcare), or alternatively, chips produced by allowing preliminarily biotinylated antigen peptides to interact with and immobilize onto a Series S Sensor Chip SA (certified) (GE Healthcare) were used. Antibodies of interest were captured onto an antigen peptide-immobilized chip, and allowed to interact to each FcγR diluted with running buffer. To regenerate and repeatedly use the chip, the antibodies captured on the chip were washed off by reacting 10 mM glycine-HCl, pH 1.5.

[4] = biological target: T4, FcγRIIIa extracellular domain with C-terminal His tag (human, UniProt P08637 17-208); experiment: as above
T4 construct: extracellular domain; also called FcgRIIIa; 3a; not shown: His tag at the C terminus
Protocol: as §1, §2

[5] = biological target: T4, FcγRIIIa extracellular domain with …; experiment: SPR (Biacore); He/Con_3a divided by He/Con_2b (FcγRIIb)

T4 sequence (P08637 17-208): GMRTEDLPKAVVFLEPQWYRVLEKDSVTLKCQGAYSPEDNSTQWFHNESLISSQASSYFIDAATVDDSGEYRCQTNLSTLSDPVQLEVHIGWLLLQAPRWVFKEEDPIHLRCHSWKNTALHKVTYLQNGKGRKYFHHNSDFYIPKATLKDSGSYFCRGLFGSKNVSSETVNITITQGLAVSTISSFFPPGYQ

Binder | He/Con_2aR (FcγRIIa R [1]) [control = 100] | He/Con_2b (FcγRIIb) [control = 100] | He_2aR/2b (FcγRIIa R [2]) [ratio] | He/Con_2b [3] | He/Con_3a [4] | He_3a/2b (IIIa/IIb) [5] [ratio]
B1 | 122 | 210 | 0.58 | – | – | –
B2 | – | – | – | 101 % of control | 28 % of control | 0.28
B3 | – | – | – | 140 % of control | 68.6 % of control | 0.49
B4 | 44.4 | 57.6 | 0.77 | – | – | –
B5 | – | – | – | 60.8 % of control | 46.8 % of control | 0.77
B6 | 50.6 | 65.9 | 0.77 | – | – | –
B7 | 81.9 | 104 | 0.78 | – | – | –
B8 | -2.9 | 0.4 | -8.33 | – | – | –
B9 | 3.6 | 11.3 | 0.32 | – | – | –
B10 | – | – | – | 172 % of control | 83.7 % of control | 0.49
B11 | 175 | 379 | 0.46 | – | – | –
B12 | – | – | – | 116 % of control | 72.4 % of control | 0.63
B13 | 111 | 192 | 0.58 | – | – | –
B14 | 120 | 152 | 0.79 | – | – | –
B15 | – | – | – | 94.7 % of control | 45.8 % of control | 0.48
B16 | – | – | – | 89.4 % of control | 41.4 % of control | 0.46
B17 | 135 | 218 | 0.62 | – | – | –
B18 | – | – | – | 63.5 % of control | 43.7 % of control | 0.69
B19 | – | – | – | 63.1 % of control | 42 % of control | 0.67
B20 | -5.6 | 1 | -5.55 | – | – | –
B21 | 3.6 | 12.2 | 0.3 | – | – | –
B22 | 107 | 134 | 0.8 | – | – | –
B23 | 142 | 236 | 0.6 | – | – | –
B24 | – | – | – | 63.7 % of control | 46.2 % of control | 0.72
B25 | 173 | 310 | 0.56 | – | – | –
B26 | – | – | – | 78.8 % of control | 51.2 % of control | 0.65
B27 | – | – | – | 113 % of control | 61.1 % of control | 0.54
B28 | – | – | – | 127 % of control | 42.4 % of control | 0.33
B29 | 150 | 251 | 0.6 | – | – | –
